Test results published in the DeepSol protein solubility set.

Assay: soluble on expression in E. coli; label from the status in PepcDB or PDB records

Sequence: MGSDKIHHHHHHMNWDDVRIFLAVARAGQILGAARRLELNHATVSRRIAALEDALRTKLFRRLTTGSELTPAGERFLDIAERMEGEMIAARSTISGEGDDISGTVRIGAPDGFGVAFLARRLGELTALHRELTIQLVPVPRSFSLSRREADIAITVERPTEGRLVAGKLVDYSLGLFASRAYADANGLPKTAAELGRHPLIGYVPDLIVSPSLDYAAEFSADWRTSFAISSALGQAEAVRSGAGIGILHTFVARSMPELVAVDAVAPIRRAYWLVYHESVRPLRRIQIVAGFITKAVERERSLFL
- soluble on expression in E. coli: not soluble

Sequence: MGSDKIHHHHHHMLLKNASFYDDEVLKRADIRLKDSLITEIKENLSPINNEEVIECRDLFVLPSFIDLSVTGLEGYENLKQKAFKGGVGLLNVFNCDQSGIKNIMAIKNNQLADIATLKNKGGEILIAPSDAFLELISHYAKSYNLPLLISLENSFEALNSGELAYELGQNFVENAFENTRLVRFMEVSRALQIPVLLDKVNSITTLKLIKAFNDLGAKLQAQTPLSHLVLDESVYEDYEPRFKIAPPLRDKESQNALKEALKNNEIAMLTSLHASKNSNAQLFEESAFGCESIEDAFSVAYTFLVQKKVISFQQLIKVMAINQAKFLKLNAGEVKENQLANLMIVDLNAQTRVSNQNSPFYGLELYGEVQRMILKGQTTFIKENACKKS
- soluble on expression in E. coli: not soluble

Sequence: MKLQLALDELTLPEAMVFMDKVVDDVDIIEVGTPFLIREGVNAIKAIKEKYPHKEVLADAKIMDGGHFESQLLFDAGADYVTVLGVTDVLTIQSCIRAAKEAGKQVVVDMICVDDLPARVRLLEEAGADMLAVHTGTDQQAAGRKPIDDLITMLKVRRKARIAVAGGISSQTVKDYALLGPDVVIVGSAITHAADPAGEARKISQVLLQHH
- soluble on expression in E. coli: soluble

Sequence: GSHMLTKQQIRYCLDEMAKMFPDAHCELVHRNPFELLIAVVLSAQCTDALVNKVTKRLFEKYRTPHDYIAVPLEELEQDIRSIGLYRNKARNIQKLCAMLIDKYNGEVPRDRDELMKLPGVGRKTANVVVSVAFGVPAIAVDTHVERVSKRLGFCRWDDSVLEVEKTLMKIIPKEEWSITHHRMIFFGRYHCKAQSPQCPSCPLLHLCREGKKRMRKREEKAANQK
- soluble on expression in E. coli: soluble

Sequence: MVINGLDILLQNPEVLRHRRVGLIANQTSVSMQLEYSWMLLKRAGVELTRIFSPEHGLFAIEQDQIAVGHQPDIGCEIVSLYGDSEHSLAPARELLDGLDLVLFDIQDVGSRYYTYVNTLALFMKAAEGLDIEIMVLDRPNPLGGSLIEGPQLDPAFHSFVGVMPLPVRHGLTAGEIAHFYRNYKKLDLNLNVIPMQGWSRQMLFPETCLPWVPPSPNMPSFEAAEVYPGMCLFEGLNVSEGRGTTTPFLLSGATFVDPEALAERLASMPLEGVVFRPTWFRPTFHKYAGEAIGGLYLHVTDHARFRPFATGVAMTCALYELYPEQLAFLDGVYEFRDDIPAFDLLAGSSTIRSMILDNRDTTAIIASWEKDEAEFAAIKPNFHLYNN
- soluble on expression in E. coli: not soluble

Sequence: MTKNTSYHYSIIIPHKNTPRLLERCLCSIPTWDEIQIIIIDDNSNSESVDFSHFPGNGRKNTEVLFTKEGKGAGYARNIGLSHARGKWIIFADADDFFTADCFTILNEYMDSPHEVIYFNVRFVMSDNPSQESRRGTYYTNFFNDVNPENKLRYQSQVPWGKMIRRSFLSTFHIQFDETRIANDVYFSCLVGIYAPKATTDRRIIYYCTESGQSLAMSKQDRESLIIRFNASMKCNRLLRQEKIHYYLSPLPWCIPSAKTKEWLPAKYFFEYLFFFRLQAFKELYYAFSAILSHMNEPATKETDNQCNKKTTNLRE
- soluble on expression in E. coli: not soluble

Sequence: MGSDKIHHHHHHMSCSHEHESLLVTSPNKSAQAVADALEKHPITFSLPQQFYSDADVFQVEMEQIFYKEWLFVGITGEIPDNGNFITLDIGDNPITVIRDQNGEVRAFHNTCRHRGSKICLVKQGKVPKLVCPYHQWTYELDGNLLFAGTEMGDDFDKNDYGLHKVNCRVAGGYIFVSLSENPTNIDGFFDDLTHYLEPYDLDNCKVAVESTLIEDANWKLVIENNRECYHCSGNHPELLNTLLEWDDTEDPRASDEFKAQVAAKQAMWEAEGIPYKHVSHGHGLRNRIVRMPLLEGTVSMTIDGKAGCKKLMGRIKNPDLGSMRILHLPNSWSHAMGDHLIAFQVIPLGAQKTQVTTKWIVHKDAVEGVDYDVAQLRQVWDATNVQDRTLAENNQKGINSKAYQPGPYSTTFEFGVVNFIDWFSHTMQSNIKASAEKS
- soluble on expression in E. coli: not soluble
